{"source": "IntAct's records for PubMed 28934384", "parents": {"B1": {"name": "Protein kinase C epsilon type (Homo sapiens), Q02156 (parent)", "chain": "MVVFNGLLKIKICEAVSLKPTAWSLRHAVGPRPQTFLLDPYIALNVDDSRIGQTATKQKTNSPAWHDEFVTDVCNGRKIELAVFHDAPIGYDDFVANCTIQFEELLQNGSRHFEDWIDLEPEGRVYVIIDLSGSSGEAPKDNEERVFRERMRPRKRQGAVRRRVHQVNGHKFMATYLRQPTYCSHCRDFIWGVIGKQGYQCQVCTCVVHKRCHELIITKCAGLKKQETPDQVGSQRFSVNMPHKFGIHNYKVPTFCDHCGSLLWGLLRQGLQCKVCKMNVHRRCETNVAPNCGVDARGIAKVLADLGVTPDKITNSGQRRKKLIAGAESPQPASGSSPSEEDRSKSAPTSPCDQEIKELENNIRKALSFDNRGEEHRAASSPDGQLMSPGENGEVRQGQAKRLGLDEFNFIKVLGKGSFGKVMLAELKGKDEVYAVKVLKKDVILQDDDVDCTMTEKRILALARKHPYLTQLYCCFQTKDRLFFVMEYVNGGDLMFQIQRSRKFDEPRSRFYAAEVTSALMFLHQHGVIYRDLKLDNILLDAEGHCKLADFGMCKEGILNGVTTTTFCGTPDYIAPEILQELEYGPSVDWWALGVLMYEMMAGQPPFEADNEDDLFESILHDDVLYPVWLSKEAVSILKAFMTKNPHKRLGCVASQNGEDAIKQHPFFKEIDWVLLEQKKIKPPFKPRIKTKRDVNNFDQDFTREEPVLTLVDEAIVKQINQEEFKGFSYFGEDLMP"}, "B2": {"name": "Protein kinase C epsilon type (Homo sapiens), Q02156 (parent)", "chain": "B1 chain", "partner": "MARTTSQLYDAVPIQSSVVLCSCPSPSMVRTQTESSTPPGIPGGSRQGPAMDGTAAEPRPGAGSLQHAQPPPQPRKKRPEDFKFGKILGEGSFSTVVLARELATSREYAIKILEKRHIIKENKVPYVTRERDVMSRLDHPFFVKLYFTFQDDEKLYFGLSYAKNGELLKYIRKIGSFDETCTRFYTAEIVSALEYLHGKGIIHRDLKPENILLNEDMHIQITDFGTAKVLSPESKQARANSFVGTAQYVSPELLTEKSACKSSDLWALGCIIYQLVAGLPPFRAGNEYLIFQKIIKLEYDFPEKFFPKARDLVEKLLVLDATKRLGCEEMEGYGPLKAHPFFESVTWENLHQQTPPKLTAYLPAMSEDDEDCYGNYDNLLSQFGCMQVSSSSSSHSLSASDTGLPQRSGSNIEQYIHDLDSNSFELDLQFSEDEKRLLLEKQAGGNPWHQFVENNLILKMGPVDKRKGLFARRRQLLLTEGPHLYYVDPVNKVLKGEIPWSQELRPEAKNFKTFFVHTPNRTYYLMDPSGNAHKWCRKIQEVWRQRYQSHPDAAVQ"}}, "data": [{"variants_of": "B1", "conditions": "with sin1_human MAPKAP1, Q9BPZ7", "values": [{"variant": "E599K", "effect of a mutation on the interaction": "increasing interaction strength"}]}, {"variants_of": "B2", "conditions": "with pdpk1_human PDPK1, O15530", "values": [{"variant": "E599K", "effect of a mutation on the interaction": "with no effect"}]}]}
